Data from paper PMC8357825, “Structural basis for Ca^2+ activation of the heteromeric PKD1L3/PKD2L1 channel” (Nature Communications, 2021).

B1: mouse PKD1L3-CTD (residues 1632–2151) (domain or fragment, UniProt Q2EG98 1632-2151, looked up)
chain: PIYTAPAMNNLAKPTRKAWKKQLSKLTGGTLVQILFLTLLMTTVYSAKDSSRFFLHRAIWKRFSHRFSEIKTVEDFYPWANGTLLPNLYGDYRGFITDGNSFLLGNVLIRQTRIPNDIFFPGSLHKQMKSPPQHQEDRENYGAGWVPPDTNITKVDSIWHYQNQESLGGYPIQGELATYSGGGYVVRLGRNHSAATRVLQHLEQRRWLDHCTKALFVEFTVFNANVNLLCAVTLILESSGVGTFLTSLQLDSLTSLQSSERGFAWIVSQVVYYLLVCYYAFIQGCRLKRQRLAFFTRKRNLLDTSIVLISFSILGLSMQSLSLLHKKMQQYHCDRDRFISFYEALRVNSAVTHLRGFLLLFATVRVWDLLRHHAQLQVINKTLSKAWDEVLGFILIIVVLLSSYAMTFNLLFGWSISDYQSFFRSIVTVVGLLMGTSKHKEVIALYPILGSLLVLSSIILMGLVIINLFVSAILIAFGKERKACEKEATLTDMLLQKLSSLLGIRLHQNPSEEHADNTGY
notes: PKD1L3, mouse, Uniprot Q2EG98, carboxy-terminal domain (TM6-TM11 = S1-S6; VSD, PMD and PD), residues 1632-2151; it is not clear whether each chain has both tags or one tag each; No tag removal is described; also called mPKD1L3 (residues 1632–2151); TRP-like domain; source: HEK293F, transiently co-transfected with mPKD2L1, purified (anti-Flag M2 resin, Strep-Tactin resin, SEC in GDN)
B2: mouse PKD2L1 (residues 64–629) (domain or fragment, UniProt A2A259 64-629, looked up)
chain: TLVSSCCLHICRSIRGLWGTTLTENTAENRELYVKTTLRELVVYIVFLVDICLLTYGMTSSSAYYYTKVMSELFLHTPSDSGVSFQTISSMSDFWDFAQGPLLDSLYWTKWYNNQSLGRGSHSFIYYENLLLGAPRLRQLRVRNDSCVVHEDFREDILNCYDVYSPDKEDQLPFGPQNGTAWTYHSQNELGGSSHWGRLTSYSGGGYYLDLPGSRQASAEALQGLQEGLWLDRGTRVVFIDFSVYNANINLFCILRLVVEFPATGGTIPSWQIRTVKLIRYVNNWDFFIVGCEVVFCVFIFYYVVEEILEIHLHRLRYLSSVWNILDLVVILLSIVAVGFHIFRTLEVNRLMGKLLQQPDTYADFEFLAFWQTQYNNMNAVNLFFAWIKIFKYISFNKTMTQLSSTLARCAKDILGFAIMFFIVFFAYAQLGYLLFGTQVENFSTFVKCIFTQFRIILGDFDYNAIDNANRILGPVYFVTYVFFVFFVLLNMFLAIINDTYSEVKEELAGQKDQLQLSDFLKQSYNKTLLRLRLRKERVSDVQKVLKGGEPEIQFEDFTSTLRELG
notes: PKD2L1, mouse, Uniprot A2A259, residues 64-629 (lacks the C-terminal coiled-coil domain); Three copies of this chain (I, II, III) stand with one PKD1L3-CTD in the heterotetramer; It is not clear whether each chain has both tags or one tag each; also called mPKD2L1 (residues 64–629); TRPP2; source: HEK293F, transiently co-transfected with mPKD1L3, purified (anti-Flag M2 resin, Strep-Tactin resin, …)

Key:
Test in all cases: cryo-EM structure; co-expressed and co-purified PKD1L3-CTD/PKD2L1 complex in 20 mM HEPES pH 7.5, 150 mM NaCl, 0.01% GDN, 0.2% Fos-Choline-8 added; without (apo, 3.4 Å) and with 20 mM CaCl2 (Ca2+-loaded, 3.1 Å)
[1] = target: B2; conditions: both partners purified
[2] = target: B1; conditions: both partners purified
[3] = target: the molecule itself

B1
binding result [1]: binds

B2
stoichiometry N [2]: 3 PKD2L1 per PKD1L3 | binding result [3]: binds
